Test results taken from patent US20150098945A1 (Daiichi Sankyo, published 2015).

Tests used:
[1] = target: T1, full-length human ROBO4 (pCI-hROBO4-transfected HEK293/HEK293T cells) (human, UniProt Q8WZ75 28-1007); experiment: flow cytometry, HEK293 cells transfected with pCI-hROBO4, antibody at 10 µg/mL, anti-mouse IgG FITC; control histogram IgG (Mouse IgG2a)
T1 sequence: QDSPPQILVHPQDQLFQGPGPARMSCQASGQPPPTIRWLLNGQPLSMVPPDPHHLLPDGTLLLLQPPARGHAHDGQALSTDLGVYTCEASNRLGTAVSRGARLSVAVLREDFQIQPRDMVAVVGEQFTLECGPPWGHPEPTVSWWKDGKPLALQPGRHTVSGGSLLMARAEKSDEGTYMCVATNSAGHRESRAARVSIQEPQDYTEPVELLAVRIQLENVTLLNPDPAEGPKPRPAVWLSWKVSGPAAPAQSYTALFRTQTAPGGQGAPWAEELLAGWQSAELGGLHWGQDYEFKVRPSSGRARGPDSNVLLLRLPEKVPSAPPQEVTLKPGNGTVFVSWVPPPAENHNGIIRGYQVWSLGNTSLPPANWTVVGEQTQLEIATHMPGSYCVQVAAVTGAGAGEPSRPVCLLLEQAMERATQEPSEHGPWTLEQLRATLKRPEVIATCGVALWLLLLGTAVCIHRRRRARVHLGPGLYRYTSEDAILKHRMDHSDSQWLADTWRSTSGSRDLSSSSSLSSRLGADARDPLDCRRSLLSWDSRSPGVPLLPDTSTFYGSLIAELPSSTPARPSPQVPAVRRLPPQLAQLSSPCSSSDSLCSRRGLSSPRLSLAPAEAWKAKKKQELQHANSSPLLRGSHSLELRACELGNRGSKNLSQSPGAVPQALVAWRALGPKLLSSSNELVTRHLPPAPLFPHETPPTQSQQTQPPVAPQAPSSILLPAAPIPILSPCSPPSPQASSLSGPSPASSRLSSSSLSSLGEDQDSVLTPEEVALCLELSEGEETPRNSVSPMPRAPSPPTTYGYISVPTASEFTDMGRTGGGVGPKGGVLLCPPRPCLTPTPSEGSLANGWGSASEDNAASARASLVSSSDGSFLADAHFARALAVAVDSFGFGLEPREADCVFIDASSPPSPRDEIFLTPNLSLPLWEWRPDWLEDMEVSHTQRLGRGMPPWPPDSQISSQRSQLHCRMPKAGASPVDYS
Method: (§1) HEK293 cells were inoculated at a concentration of 1.5×10⁶ cells/dish to a 60-mm dish (manufactured by Corning Inc.) and cultured overnight in a DMEM medium containing 10% FBS at 37° C. under 5% CO₂ conditions. On the next day, the HEK293 cells were transfected with pCI-hROBO4, pCI-mROBO4, pCI-raROBO4, pCI-FLAG-cynoROBO4-1, pCI-FLAG-cynoROBO4-2, pCI-hROBO1, pCI-hROBO2, or pCI-hROBO3 using FuGENE6 Transfection Reagent and further cultured overnight at 37° C. under 5% CO₂ conditions. On the next day, the expression vector-transfected cells were treated with TrypLE Express (manufactured by Life Technologies Corp.), washed with PBS containing 5% FBS, and then suspended in PBS containing 5% FBS. The obtained cell suspension was used in flow cytometry analysis.
(§2) Each cell suspension prepared in 4)-3-1 was centrifuged, and the supernatant was removed. Then, MAb1 or a negative control Mouse IgG2a was added at a concentration of 10 μg/mL to 2×10⁵ expression vector-transfected cells, and the resulting suspension was left standing at 4° C. for 1 hour. […] Data was analyzed using Flowjo. The histogram of FITC fluorescence intensity was prepared. The antibody was determined to bind in a cross-species manner when the histogram of MAb1 was shifted to a stronger fluorescence intensity region compared with the histogram of the negative control Mouse IgG2a.

[2] = target: T2, rat ROBO4 (pCI-raROBO4-transfected HEK293 cells) (rat, UniProt Q80W87 38-949 at identity 0.93)); experiment: flow cytometry, HEK293 cells transfected with pCI-raROBO4, anti-mouse IgG FITC; control histogram IgG (Mouse IgG2a)
T2 chain: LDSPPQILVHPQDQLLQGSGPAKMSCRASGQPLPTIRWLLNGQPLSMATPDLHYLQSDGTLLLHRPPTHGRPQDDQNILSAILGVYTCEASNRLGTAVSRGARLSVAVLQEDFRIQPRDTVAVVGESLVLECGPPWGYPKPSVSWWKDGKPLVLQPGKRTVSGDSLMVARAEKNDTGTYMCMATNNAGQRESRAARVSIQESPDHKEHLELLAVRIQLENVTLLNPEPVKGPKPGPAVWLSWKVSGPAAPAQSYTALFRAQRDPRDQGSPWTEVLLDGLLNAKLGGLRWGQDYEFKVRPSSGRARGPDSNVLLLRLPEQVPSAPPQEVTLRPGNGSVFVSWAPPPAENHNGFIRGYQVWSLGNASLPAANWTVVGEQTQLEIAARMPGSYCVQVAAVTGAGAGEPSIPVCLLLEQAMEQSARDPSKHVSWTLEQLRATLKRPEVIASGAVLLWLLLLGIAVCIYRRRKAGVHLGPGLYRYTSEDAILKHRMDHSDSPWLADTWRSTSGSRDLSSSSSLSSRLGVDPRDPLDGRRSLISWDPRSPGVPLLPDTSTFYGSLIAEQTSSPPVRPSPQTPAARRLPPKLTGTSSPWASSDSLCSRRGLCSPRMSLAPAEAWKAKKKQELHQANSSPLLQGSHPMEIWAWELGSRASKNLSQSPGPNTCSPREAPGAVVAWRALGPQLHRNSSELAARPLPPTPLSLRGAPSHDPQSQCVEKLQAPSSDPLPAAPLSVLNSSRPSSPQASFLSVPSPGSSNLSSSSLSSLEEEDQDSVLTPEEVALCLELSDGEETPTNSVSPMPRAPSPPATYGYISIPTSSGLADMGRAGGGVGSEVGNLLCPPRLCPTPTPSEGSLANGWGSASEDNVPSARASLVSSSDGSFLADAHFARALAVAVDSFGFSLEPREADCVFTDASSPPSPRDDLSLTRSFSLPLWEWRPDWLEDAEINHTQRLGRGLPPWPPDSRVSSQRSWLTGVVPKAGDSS
Method: as §1, §2

B1: anti-ROBO4 mouse monoclonal antibody MAb1 (antibody, mouse IgG1, V domains shown)
VH: EVQLVESGGGLVKPGGSLKLSCAASGFTFSTYAMSWVRQTPEKRLEWVATISNGGTYTYYPDSVKGRFTISRDNAENTLYLQMSSLRSEDTAMYFCARLIYYDYLDYWGHGTTLTVSS
VL: DAVMTQTPLSLPVSLGDQASISCRSSQSLENSNGNTYLNWYFQKPGQSPQLLIYRVSNRFSGVLDRFSGSGSGTDFTLKISRVEAEDFGVYFCLQVTHVPWTFGGGTKLEIKR
notes: Mouse IgG1 (gamma1), kappa light chain, purified from hybridoma supernatant; also called parent antibody MAb1
binding result [1]: binds | binding result [2]: no binding (tested: 10 µg/mL)
